Experimental data: US20240209086A1 (PETMEDIX, published 2024)
Residue numbers refer to the chain shown, from its start.

T1: canine CD20 on cells (HEK293, MDCK II, CLBL-1 or native B cells) (canine, UniProt Q3C2E2 1-297)
T1 chain: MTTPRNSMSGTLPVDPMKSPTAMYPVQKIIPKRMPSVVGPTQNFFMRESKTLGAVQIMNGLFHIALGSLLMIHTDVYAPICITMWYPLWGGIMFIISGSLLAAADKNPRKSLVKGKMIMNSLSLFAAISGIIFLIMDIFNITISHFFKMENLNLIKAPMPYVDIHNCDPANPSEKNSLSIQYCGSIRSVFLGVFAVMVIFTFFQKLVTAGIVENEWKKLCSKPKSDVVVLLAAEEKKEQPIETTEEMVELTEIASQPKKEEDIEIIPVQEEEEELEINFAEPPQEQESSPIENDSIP

B1: PMX172VH/PMX263VH/PMX172VL (bispecific antibody, V domains shown)
VH 1: EVQLVESGGDLVKPGGSLRLSCVASGFTFSSYHMSWVRQAPGKGLQWVAYSNSGGSRTSYADAVKGRFTISRDNAKNTLYLQMNSLRAEDTAVYYCASEGGGGRYGYKDYGMDYWGHGTSLFVSS
VH 2: EVQLVESGGDLVKPGGSLRLSCVASGFTFSRYYMNWVRQAPGKGLQWVAYINSGGSSTSYADAVKGRFTISRDNAKNTLYLQMNSLRADDTAVYYCTSFDYWGQGTLVTVSS
VL: SYVLTQLPSKNVTLKQPAHITCGGDNIGSKSVHWYQQKLGQAPVLIIYYDSSRPTGIPERFSGANSGNTATLTISGALAEDEADYYCQVWDSSAKAWVFGEGTQLTVL
B2: PMX172VH/PMX272VH/PMX172VL (bispecific antibody, V domains shown)
VH 1: B1 VH 1
VH 2: B1 VH 2 with N52D, G54D
VL: B1 VL
B3: PMX172VH/PMX239VH/PMX172VL (bispecific antibody, V domains shown)
VH 1: B1 VH 1
VH 2: B1 VH 2 with Y50F, N52T, A61G, D89E
VL: B1 VL
B4: PMX172VH/PMX273VH/PMX172VL (bispecific antibody, V domains shown)
VH 1: B1 VH 1
VH 2: EMQLVESGGDLVKPGGSLRLSCVASGFTFSRYHMSWVRQAPGKGLQWVAYIDSDGSPTNYADAVKGRFTISRDNAKNTLYLQMNSLRAEDTAVYYCTTYDQWGQGTLVTVSS
VL: B1 VL
B5: PMX172VH/PMX264VH/PMX172VL (bispecific antibody, V domains shown)
VH 1: B1 VH 1
VH 2: B1 VH 2 with Y33H, N35S, Y50F, S53T, G55R, S56M, S59N, D89E, F99L
VL: B1 VL
B6: PMX172VH/PMX233VH/PMX172VL (bispecific antibody, V domains shown)
VH 1: B1 VH 1
VH 2: B4 VH 2 with H33Y, S35N, D54G, T91A, V93I, Y99F, Q101F
VL: B1 VL
B7: PMX172VH/PMX236VH/PMX172VL (bispecific antibody, V domains shown)
VH 1: B1 VH 1
VH 2: B1 VH 2 with F27L, N52D, S57P, S59N, D89E, T97S
VL: B1 VL
B8: PMX159 in bispecific format (canine CD3 arm PMX159 x Rituximab arm, human IgG4PE knob-in-hole) (bispecific antibody)
heavy 1: ELTLQESGPGLVKPSQTLSLTCVVSGGSVTRSYYWNWIRQRPGRGLEWMGYWTGSTIYNPTFQGRISITADTAKSQFSLQLRSMTTEDTAMYFCAREGGKSLGAFAYWGQGTLVTVSSASTKGPSVFPLAPCSRSTSESTAALGCLVKDYFPEPVTVSWNSGALTSGVHTFPAVLQSSGLYSLSSVVTVPSSSLGTKTYTCNVDHKPSNTKVDKRVESKYGPPCPPCPAPEFEGGPSVFLFPPKPKDTLMISRTPEVTCVVVDVSQEDPEVQFNWYVDGVEVHNAKTKPREEQFNSTYRVVSVLTVLHQDWLNGKEYKCKVSNKGLPSSIEKTISKAKGQPREPQVYTLPPSQCEMTKNQVSLSCAVKGFYPSDIAVEWESNGQPENNYKTTPPVLDSDGSFFLVSRLTVDKSRWQEGNVFSCSVMHEALHNRFTQKSLSLSLGK
light 1: SYVLTQLPSKNVTLKQPAHITCGGDKIGSKNVHWYQQKLGQAPVMIIYYDSSRPTGIPERFSGANSGNTATLTISGALAEDEADYYCQVWDSSAKAAVFGGGTHLTVLRTVAAPSVFIFPPSDEQLKSGTASVVCLLNNFYPREAKVQWKVDNALQSGNSQESVTEQDSKDSTYSLSSTLTLSKADYEKHKVYACEVTHQGLSSPVTKSFNRGEC
heavy 2: not shown
light 2: QIVLSQSPAILSASPGEKVTMTCRASSSVSYIHWFQQKPGSSPKPWIYATSNLASGVPVRFSGSGSGTSYSLTISRVEAEDAATYYCQQWTSNPPTFGGGTKLEIKRTVAAPSVFIFPPSDEQLKSGTASVVCLLNNFYPREAKVQWKVDNALQSGNSQESVTEQDSKDSTYSLSSTLTLSKADYEKHKVYACEVTHQGLSSPVTKSFNRGEC
B9: PMX160 in bispecific format (canine CD3 arm PMX160 x Rituximab arm, human IgG4PE knob-in-hole) (bispecific antibody)
heavy 1: EVQMVESGGDLVKPGGSLRFSCVASGFTFSSYHMSWVRQAPGKGLQWVAYINSGGSRTSYADAVKGRFTISRDNAKNTLYLQMNSLRAEDTAVYYCASGRSPPPLGSFDYGLDYWGHGTSLFVSSASTKGPSVFPLAPCSRSTSESTAALGCLVKDYFPEPVTVSWNSGALTSGVHTFPAVLQSSGLYSLSSVVTVPSSSLGTKTYTCNVDHKPSNTKVDKRVESKYGPPCPPCPAPEFEGGPSVFLFPPKPKDTLMISRTPEVTCVVVDVSQEDPEVQFNWYVDGVEVHNAKTKPREEQFNSTYRVVSVLTVLHQDWLNGKEYKCKVSNKGLPSSIEKTISKAKGQPREPQVYTLPPSQCEMTKNQVSLSCAVKGFYPSDIAVEWESNGQPENNYKTTPPVLDSDGSFFLVSRLTVDKSRWQEGNVFSCSVMHEALHNRFTQKSLSLSLGK
light 1: B8 light 1 with K26N, N31S, M45L, A97W, G101E, H104Q
heavy 2: not shown
light 2: B8 light 2
B10: PMX162 in bispecific format (canine CD3 arm PMX162 x Rituximab arm, human IgG4PE knob-in-hole) (bispecific antibody)
heavy 1: EMQLVESGGDLVKPGGSLRLSCVASGFTFSTYHMSWVRQAPGKGLQWVAYSNSGGTRTYYADAVKGRFTISRDNVKNTLYLQMNSLRAEDTAVYYCASEGSGGGRYGFKDYGMDYWGHGTSLFVSTASTKGPSVFPLAPCSRSTSESTAALGCLVKDYFPEPVTVSWNSGALTSGVHTFPAVLQSSGLYSLSSVVTVPSSSLGTKTYTCNVDHKPSNTKVDKRVESKYGPPCPPCPAPEFEGGPSVFLFPPKPKDTLMISRTPEVTCVVVDVSQEDPEVQFNWYVDGVEVHNAKTKPREEQFNSTYRVVSVLTVLHQDWLNGKEYKCKVSNKGLPSSIEKTISKAKGQPREPQVYTLPPSQCEMTKNQVSLSCAVKGFYPSDIAVEWESNGQPENNYKTTPPVLDSDGSFFLVSRLTVDKSRWQEGNVFSCSVMHEALHNRFTQKSLSLSLGK
light 1: B8 light 1 with K26N, N31S, M45L, A97W, G101E, H104Q
heavy 2: not shown
light 2: B8 light 2

Molecular target: T1, canine CD20 on cells (HEK293, MDCK II, …)
Experiment: cell-based or functional assay

Row | Binder | EC50 (nM), bispecific killing (FIG. 13E)
1 | B1 | 15.7 nM
2 | B2 | 5.87 nM
3 | B3 | 2.59 nM
4 | B4 | 9.63 nM
5 | B5 | 2.88 nM

Molecular target: T1, canine CD20 on cells (HEK293, MDCK II, …)
Experiment: cell-based or functional assay
Remark: another data set of the same source

Row | Binder | EC50 (nM), bispecific killing (FIG. 15)
6 | B6 | 0.188 nM
7 | B5 | 0.361 nM
8 | B7 | 0.153 nM

Molecular target: T1, canine CD20 on cells (HEK293, MDCK II, …)
Experiment: cell-based or functional assay
Remark: another data set of the same source

Row | Binder | EC50 (nM), endogenous B cell depletion in PBMC (FIG. 16A)
9 | B6 | 0.307 nM
10 | B5 | 0.828 nM
11 | B7 | 0.075 nM

Molecular target: T2, canine CD3εδ-Fc (heterodimer of canine CD3ε-hIgG4PE-knob and canine CD3δ-hIgG4PE-hole) (canine)
T2 construct: also called CD3εδ-Fc fusion protein; copies: 1 + 1
Experiment: SPR Biacore 8K, single cycle, CD3εδ-Fc amine-coupled on CM5, antibody at 16.5, 33 and 66 nM
Method: Candidates CD3 bispecific antibodies were also screened for their ability to bind canine CD3εδ-Fc using surface plasmon resonance (SPR) using a Biacore 8K (Cytiva). Canine CD3εδ-Fc was covalently bound by amine coupling to the surface of a CM5 chip (Cytiva). CHO cell supernatant was diluted to 66, 33 and 16.5 nM in HBS-EP+ buffer and run on the chip single cycle kinetic protocol. Data was analysed using the dedicated software (Biacore Insight Evaluation Software).

T2 sequence (chain, as listed by the source mutant limits assumed): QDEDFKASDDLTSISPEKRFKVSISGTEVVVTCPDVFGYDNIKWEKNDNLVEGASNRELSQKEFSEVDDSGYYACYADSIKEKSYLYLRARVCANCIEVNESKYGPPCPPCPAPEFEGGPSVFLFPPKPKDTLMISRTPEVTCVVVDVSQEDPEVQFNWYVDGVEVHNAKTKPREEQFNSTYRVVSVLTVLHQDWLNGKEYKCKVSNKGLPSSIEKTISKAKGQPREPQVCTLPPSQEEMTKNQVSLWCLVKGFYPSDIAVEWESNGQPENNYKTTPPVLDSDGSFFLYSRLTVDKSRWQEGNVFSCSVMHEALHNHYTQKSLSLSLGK

Row | Binder | binding result
12 | B8 | binds
13 | B9 | binds
14 | B10 | binds
